Laboratory results as given in article PMC5785358, “The STENOFOLIA gene from Medicago alters leaf width, flowering time and chlorophyll content in transgenic wheat”.

T1: MBP-STF full length (STENOFOLIA) (Medicago truncatula, UniProt G0ZGT3 1-358)
T1 sequence: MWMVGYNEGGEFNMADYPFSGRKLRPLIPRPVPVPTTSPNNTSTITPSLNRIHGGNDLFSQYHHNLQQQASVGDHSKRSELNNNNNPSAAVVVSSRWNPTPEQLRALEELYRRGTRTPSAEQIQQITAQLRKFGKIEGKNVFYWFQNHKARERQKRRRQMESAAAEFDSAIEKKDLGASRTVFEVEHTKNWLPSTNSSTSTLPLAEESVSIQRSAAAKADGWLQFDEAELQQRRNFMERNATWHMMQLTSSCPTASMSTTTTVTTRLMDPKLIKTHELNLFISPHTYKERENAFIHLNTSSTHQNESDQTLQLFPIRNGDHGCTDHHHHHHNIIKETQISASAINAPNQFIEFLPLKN

T2: MBP-STF S3 (Medicago truncatula, UniProt G0ZGT3 1-90)
T2 sequence: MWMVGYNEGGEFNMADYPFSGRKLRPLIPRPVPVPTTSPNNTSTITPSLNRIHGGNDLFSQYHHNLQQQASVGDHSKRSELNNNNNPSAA

T3: MBP-STF S1 (Medicago truncatula, UniProt G0ZGT3 1-262)
T3 sequence: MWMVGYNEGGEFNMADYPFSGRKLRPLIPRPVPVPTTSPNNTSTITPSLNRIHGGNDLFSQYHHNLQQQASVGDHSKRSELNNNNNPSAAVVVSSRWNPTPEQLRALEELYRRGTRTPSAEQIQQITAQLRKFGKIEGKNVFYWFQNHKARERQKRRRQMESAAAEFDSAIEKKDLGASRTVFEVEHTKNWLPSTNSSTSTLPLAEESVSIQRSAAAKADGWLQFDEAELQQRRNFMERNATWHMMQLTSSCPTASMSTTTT

T4: MBP-STF S2 (Medicago truncatula, UniProt G0ZGT3 263-358)
T4 sequence: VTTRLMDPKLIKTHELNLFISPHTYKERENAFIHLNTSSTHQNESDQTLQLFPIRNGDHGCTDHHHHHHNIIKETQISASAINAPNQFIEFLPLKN

B1: TaACC-B1 probe (dsDNA)
DNA 1: TTCTTCCAGGTGAATACACAGCACTAACATGGCATAATCTGACAGGATAAATCTCCTTATCGATCTATCCTTAATGCTCATCTGCTCTCTCTCTCTCTCTCTCTCTCTTTTTCGGTGGTGCGTGCAGGTCCTGGACCACGGCATCTCGACGGAGCTGATGGACAAGGTGGAGAAGATGACCAAGG
DNA 2: CCTTGGTCATCTTCTCCACCTTGTCCATCAGCTCCGTCGAGATGCCGTGGTCCAGGACCTGCACGCACCACCGAAAAAGAGAGAGAGAGAGAGAGAGAGAGCAGATGAGCATTAAGGATAGATCGATAAGGAGATTTATCCTGTCAGATTATGCCATGTTAGTGCTGTGTATTCACCTGGAAGAA
B2: TaKN1 probe (TaKN-B1 sequence printed) (dsDNA)
DNA 1: TACTGCAGTATTGCCCTCCAGCTTTTTCCTCTCGCTCCCCATCTCCTTCCCTCTAATGATAGCTTAGAGAGAGAAGGAGAAAAGGCTATTCCGCTCAAGGCAAGGCAGGCAGGTACCCTTCTCCTTCCCCAAACCCAAACCCTTTTTCTCTTTCTCTCCGCCCAAGAACTTCACCTCAAGCTCAATCCGTCT
DNA 2: AGACGGATTGAGCTTGAGGTGAAGTTCTTGGGCGGAGAGAAAGAGAAAAAGGGTTTGGGTTTGGGGAAGGAGAAGGGTACCTGCCTGCCTTGCCTTGAGCGGAATAGCCTTTTCTCCTTCTCTCTCTAAGCTATCATTAGAGGGAAGGAGATGGGGAGCGAGAGGAAAAAGCTGGAGGGCAATACTGCAGTA
B3: TaACC-D1 probe (dsDNA)
DNA 1: TTCTTCCAGGTGAATACACCACAGTAGTAATATGGCATAATCTGACAAGATGAATCTCCTCATCGACCCATCCTTAATGTTGATTTGCTCTCTCTCTGTTTTCGGCGGTGCGTGCAGGTTCTGGACCACGGCATCTC
DNA 2: GAGATGCCGTGGTCCAGAACCTGCACGCACCGCCGAAAACAGAGAGAGAGCAAATCAACATTAAGGATGGGTCGATGAGGAGATTCATCTTGTCAGATTATGCCATATTACTACTGTGGTGTATTCACCTGGAAGAA
B4: Ta6SFT-A1 probe (dsDNA)
DNA 1: ACTCCACGCACTAACTTTTTTAATAAGGTCTTCTGTGTGGGGAAAAAGACGGGATCTCTCTCTCTAGACATAATCAAAAGGGATTGTTTAACTCACACCAAATTTGGAGGAAAACTTTGACAGCAAAACAGGGGAAAACAGAGTTTCCATAGCGGGTTGGGGGTTCACTTCACAGTGGCGTAGATTGGA
DNA 2: TCCAATCTACGCCACTGTGAAGTGAACCCCCAACCCGCTATGGAAACTCTGTTTTCCCCTGTTTTGCTGTCAAAGTTTTCCTCCAAATTTGGTGTGAGTTAAACAATCCCTTTTGATTATGTCTAGAGAGAGAGATCCCGTCTTTTTCCCCACACAGAAGACCTTATTAAAAAAGTTAGTGCGTGGAGT
B5: TaBEL-A1 probe (dsDNA)
DNA 1: GCTTGCGTGTGTGTGCATCAGAGAGAAAGAGAGAGAGAGAGAGGCCTGCCGCCCAAGATCTCTCTTGATCAGTGCCGAGATCATCAATCAGGGGGGCCTGCCATCCAAGTGGGCATCTCCATTTTTCTTCCTCCTCGAGCTGGTTTCCGAGCCTGATAAAACCACCCTCCCCGGCCTCGCTCAACTGCTCCCCAGC
DNA 2: GCTGGGGAGCAGTTGAGCGAGGCCGGGGAGGGTGGTTTTATCAGGCTCGGAAACCAGCTCGAGGAGGAAGAAAAATGGAGATGCCCACTTGGATGGCAGGCCCCCCTGATTGATGATCTCGGCACTGATCAAGAGAGATCTTGGGCGGCAGGCCTCTCTCTCTCTCTCTTTCTCTCTGATGCACACACACGCAAGC

Columns and labels:
Assay in all cases: EMSA; 10 mM Tris pH 7.5, 50 mM KCl, 1 mM DTT, 2.5% glycerol, 0.05% NP-40, 5 mM MgCl2, 0.5 mM EDTA, 5 ng/uL poly(dI.dC), 1 ug protein, 100 fmol probe, room temperature 40 min
Settings in all cases: protein: recombinant; tags: MBP (N-terminal, pMAL-c2X); label: 3' biotin; blunt
[1] = molecular target: T1, MBP-STF full length (STENOFOLIA)
MBP-STF S3 = molecular target: T2, MBP-STF S3
MBP-STF S1 = molecular target: T3, MBP-STF S1
MBP-STF S2 = molecular target: T4, MBP-STF S2

Row | Binder | binding result [1] | binding result (MBP-STF S3) | binding result (MBP-STF S1) | binding result (MBP-STF S2)
1 | B1 | binds |  |  | 
2 | B2 | binds |  |  | 
3 | B3 | binds | no binding |  | 
4 | B4 | binds | no binding | binds | no binding
5 | B5 | binds |  |  | 
